The target of this assay is biotinylated D-form of SARS-CoV-2 HR1 (SARS-CoV-2).

Data on one substance can be found in patent US20220119464A1.

Usually Kd stands for the equilibrium constant for the complex coming apart.

Substance D-form of EK1 (peptide) came in with a dissociation constant Kd of 0.032 µM.
